The labels stand for the following.
B1: MEIG1 wild type, two-hybrid fusion from MEIG1/pGBKT7 [mouse] / Parkin co-regulated gene protein (PACRG), two-hybrid fusion from PACRG/pGADT7 [mouse] (parent complex)
chain 1: MATSDVKPKSISRAKKWSEEIENLYRFQQAGYRDEIEYKQVKQVAMVDRWPETGYVKKLQRRDNTFFYYNKERECEDKEVHKVKVYVY
chain 2: not shown

The variants in one experiment derive from B1. In words: yeast two-hybrid, α-galactosidase activity; Yeast strain AH109 co-transformed with PACRG/pGADT7 and MEIG1/pGBKT7 plasmids; parent: 64; read off a plot.
For the variant chain 1 Y68A, the response is roughly 3.3.

Turning to chain 1 W50A, the response is roughly 12.

Turning to chain 1 W50A, chain 1 Y68A, the response was roughly 2.2.

In a further experiment the parent is B1. The experiment in a line: yeast two-hybrid, α-galactosidase activity; Yeast strain AH109 co-transformed with PACRG/pGADT7 and MEIG1/pGBKT7 plasmids; parent: 65; read off a plot.
chain 1 Y68A: the response was roughly 5.

Turning to chain 1 R13E, the response was roughly 81.

For the variant chain 1 K57E, the response is roughly 22.

For chain 1 Y25A, the response was roughly 58.

For the variant chain 1 I36A, the response is roughly 67.

On to chain 1 H81A, for which the response was roughly 85.

As for chain 1 W50A, the response is roughly 10.

Regarding chain 1 R62E, the response was roughly 67.

Regarding chain 1 V87A, the response is roughly 72.

Turning to chain 1 K9E, the response is roughly 72.

For the variant chain 1 F66A, the response is roughly 15.

For chain 1 E20R, the response was roughly 72.
